Data taken from patent publication US20100061978A1 (UNIVERSITY OF BRITISH COLUMBIA, published 2010).

Molecular target: T1, c-kit, endogenous in FDC-P1 cells (mouse, UniProt P05532 25-979)
T1 construct: whole, on cells
Test: co-immunoprecipitation with anti-CXCR4 from FDC-P1 whole cell lysates

T1 sequence (P05532 25-979): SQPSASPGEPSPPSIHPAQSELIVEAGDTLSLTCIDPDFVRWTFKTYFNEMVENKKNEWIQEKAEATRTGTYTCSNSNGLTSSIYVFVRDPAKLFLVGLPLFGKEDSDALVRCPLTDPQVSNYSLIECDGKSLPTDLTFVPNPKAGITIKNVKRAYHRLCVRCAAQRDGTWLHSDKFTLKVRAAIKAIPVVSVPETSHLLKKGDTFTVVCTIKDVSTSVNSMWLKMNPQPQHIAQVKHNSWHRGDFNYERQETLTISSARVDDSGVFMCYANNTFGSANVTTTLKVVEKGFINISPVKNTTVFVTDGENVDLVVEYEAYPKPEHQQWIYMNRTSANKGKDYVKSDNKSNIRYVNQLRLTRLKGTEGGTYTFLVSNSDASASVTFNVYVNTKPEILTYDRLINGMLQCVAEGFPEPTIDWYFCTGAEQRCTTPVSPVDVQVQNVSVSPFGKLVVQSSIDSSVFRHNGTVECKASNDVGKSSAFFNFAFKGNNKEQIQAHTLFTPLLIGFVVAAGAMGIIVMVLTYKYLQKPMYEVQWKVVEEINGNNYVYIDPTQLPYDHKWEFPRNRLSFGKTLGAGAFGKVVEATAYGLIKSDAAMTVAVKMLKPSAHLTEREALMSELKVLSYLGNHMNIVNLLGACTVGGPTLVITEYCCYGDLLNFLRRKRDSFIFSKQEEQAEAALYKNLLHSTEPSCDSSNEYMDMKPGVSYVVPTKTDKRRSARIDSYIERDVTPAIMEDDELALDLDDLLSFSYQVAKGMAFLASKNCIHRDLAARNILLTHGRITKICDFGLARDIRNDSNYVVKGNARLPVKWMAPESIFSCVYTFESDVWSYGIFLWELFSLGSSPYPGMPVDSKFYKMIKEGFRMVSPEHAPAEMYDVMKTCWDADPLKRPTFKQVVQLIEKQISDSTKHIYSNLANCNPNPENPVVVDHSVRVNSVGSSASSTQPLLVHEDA

B1: CXCR4, endogenous in FDC-P1 cells (receptor, mouse, UniProt P70658 1-359, looked up)
chain: MEPISVSIYTSDNYSEEVGSGDYDSNKEPCFRDENVHFNRIFLPTIYFIIFLTGIVGNGLVILVMGYQKKLRSMTDKYRLHLSVADLLFVITLPFWAVDAMADWYFGKFLCKAVHIIYTVNLYSSVLILAFISLDRYLAIVHATNSQRPRKLLAEKAVYVGVWIPALLLTIPDFIFADVSQGDISQGDDRYICDRLYPDSLWMVVFQFQHIMVGLILPGIVILSCYCIIISKLSHSKGHQKRKALKTTVILILAFFACWLPYYVGISIDSFILLGVIKQGCDFESIVHKWISITEALAFFHCCLNPILYAFLGAKFKSSAQHALNSMSRGSSLKILSKGKRGGHSSVSTESESSSFHSS
notes: whole, on cells; Immunoprecipitated with anti-CXCR4 from whole cell lysates in the co-immunoprecipitation
**Q.** Does B1 bind?
**A.** no binding
